The series in a line: soluble on expression in E. coli; label from the status in PepcDB or PDB records.
As for “MEQRRVTDFFARRRPGPPRIAPPKLACRTPSPARPALRAPASATSGSRKRARPPAAPGRDQARPPARRRLRLSVDEVSSPSTPEAPDIPACPSPGQKIKKSTPAAGQPPHLTSAQDQDTISELASCLQRARELGARVRALKASAQDAGESCTPEAEGRPEEPCGEKAPAYQRFHALAQPGLPGLVLPYKYQVLAEMFRSMDTIVGMLHNRSETPTFAKVQRGVQDMMRRRFEERNVGQIKTVYPASYRFRQERSVPTFKDGTRRSDYQLTIEPLLEQEADGAAPQLTASRLLQRRQIFSQKLVEHVKEHHKAFLASLSPAMVVPEDQLTRWHPRFNVDEVPDIEPAALPQPPATEKLTTAQEVLARARNLISPRMEKALSQLALRSAAPSSPGSPRPALPATPPATPPAASPSALKGVSQDLLERIRAKEAQKQLAQMTRCPEQEQRLQRLERLPELARVLRSVFVSERKPALSMEVACARMVGSCCTIMSPGEMEKHLLLLSELLPDWLSLHRIRTDTYVKLDKAADLAHITARLAHQTRAEEGL”, the “soluble on expression in E. coli” value was “soluble”.

“MGHHHHHHSHMRGRIYLEPPTMRKKRLLDRKVLLKSDSPTGDVLLDETLKHIKATEPTETVQTWIELLTGETWNPFKLQYQLRNVRERIAKNLVEKGILTTEKQNFLLFDMTTHPVTNTTEKQRLVKKLQDSVLERWVNDPQRMDKRTLALLVLAHSSDVLENVFSSLTDDKYDVAMNRAKDLVELDPEVEGTKPSATEMIWAVLAAFNKS”: the “soluble on expression in E. coli” value is “not soluble”.

“MGSDKIHHHHHHMTSFVLSSKNAFDYLILQGLCTQNEKSLSKIELVPAKNFNLLISLPDNRKLLIKQEPHKREGKTSGEFLKEWRVHNFLQTFPELSDIRSYFSEAVHFDPENSIFVFNYLTNYRDLMDFYVERNLKLFPIKIAMLVGTTLASIHRLSIDRQEYQEFFLNKNIFGQGIPNLNLGMDRVSPAVFGKLPTDGLKFLSLYQRYDSLGQAIAELNNALIPCCLTHNDLKLNNILLSLNWEEAAFNESSSDESIIRLIDWERGAWGDPASDLGTLIASYLQLWLHSMITSKTMAIQESLRLATTPLHLLQPSIRELVIAYLSAFPEIIELHPDFLQRVMQFCGFALIKSIQAKLQHEKTFGNKGICILQVAKSLLCRPEASIPTIFGVDASDLSPINLSPASK”: the “soluble on expression in E. coli” value is given as “not soluble”.

As to “MEVMAQIVLAPHLAGRFDDPDHIRRCIQLYSYRIPANYRRLFDFLFNTEQDFPDCDEFSFFVSVRLNIPTKILNFSEEFGKCVSLHILRKLDVIPPFSKRSQLIILKEVESLKKSIRLCDHMEQCVVAAFQQLLEDEEACIQSVHRLMPVITRSLSQSALEDLINPMIELIQCETSVKLLDRRFLMHVSICYGTHTFLDLFLPPIVEACASMNCDRSVVAKESIMWLAKRYGPVICAKFISSNVLRIMASCYEAFEMVGLEQQPKAVFNVVLQGDETCSRIESLLSEIVLTYSVTFITVQFLPFCVDLIEQFHKRSSVQLEPGLVSVFRIVELSIRSMSDHQLMNYLEEFIIQKVCQLLHSITQKIGTENTRIYANQPFKLMFSTFSEIYETDEELRINLRKRPSENTLFEVPLWMVEDVVDKFAKEWGVPFLSSFCDDPAFLIPFVSNSSSSSSPPASIAHSPPSAFTAYSLGGMSSGNRLFSLSASSPVNSVNSLGGLSFCDSGSLSAVWCARVSAAVCGVDNYRFDHLSLCNYTGHQEKIRKLAAISNENSFVSASSDKTVKLWSIKPELDEIGCQWTYQKHTRPVHDITILADNSIASTDGVLHVWDPFRTTLLAQMEWDSKEGSGGNIMRVENVDRHILSAICSLHSTVKLFDSRVGGWTCELKVSPGPGLTRAITVRDKGNKMAVALSNGTLAILDARNGKINALAQTNSTHTVSVNWLSDTRLLVCDADECGIFLETNPRAHIVRKLQDPSIPKQW”, the “soluble on expression in E. coli” value was “not soluble”.

Consider “MSLSRSLDSARSFLERLEARGGREGAVLAGEFSDIQACSAAWKADGVCSTVAGSRPENVRKNRYKDVLPYDQTRVILSLLQEEGHSDYINGNFIRGVDGSLAYIATQGPLPHTLLDFWRLVWEFGVKVILMACREIENGRKRCERYWAQEQEPLQTGLFCITLIKEKWLNEDIMLRTLKVTFQKESRSVYQLQYMSWPDRGVPSSPDHMLAMVEEARRLQGSGPEPLCVHCSAGCGRTGVLCTVDYVRQLLLTQMIPPDFSLFDVVLKMRKQRPAAVQTEEQYRFLYHTVAQMFCSTLQNASEGHHHHHH”, for which the “soluble on expression in E. coli” value is “soluble”.

For the sequence “MKVEIGKIVNTHGIKGEIKVKSNSDFTETRFQPGELVIIERKNKEPLEFTIASYRMHKGLHMLTFEGINNINDIEYLKGETIMQERDHEEIELGEHEFYYSDIIGCTVFDDDDTPIGRVTEIFETGANDVWVVKGDKEYLIPYIADVVKDIDVEGRRIQITPMEGLLDLEHHHHHH”, the “soluble on expression in E. coli” value is given as “soluble”.

“MVAKQISKADIHLLRVFCIVVDSQGFSNAQVALNVATSTISRQISELETRLGMRLCDRGRSGFRVTEKGETVYQAAQKLFGALGEFQETVDGSRGRLFGHLALGIIENWASNTSAPIVQALSRFTDLAPDVTIELHSLAPDDIEFAVLDGRVPIGIGVFHSPKPGILYTKVCEERVCLYCGSGHPLFHMTNLEDEERVLRQAQFAKRAYLNEDVVAPKTRNLPSNATAHQMEAIALLILTDKYVGYLPSYFAEEWVAKGRMKIVAGGSFDRPVSVQTATRRGMKLNSVGRTFLDILTAEAVKQGG”: the “soluble on expression in E. coli” value is reported as “not soluble”.

Take “MGSDKIHHHHHHMKNNNPPALGQKENAKHGEVFFPVQKYITRLAADYPVITTHWHDEAELTLITKGSCTYQIDLLEYEAKEGDIIFIPPLLLHSISIRDCDEFYSETYVFHINFLGGNNTDICSSRYLTPLINHEFAMPYLIAPKHPAYSSLCKCFMRITNLYSRQEFAYELALKAFLLQAIFLLLQYSEKNADFGVNTSSDKLKNVLDYIDVHYAESIQVAELAGLCYFSEYHFMRFFKKHMNMTCVQYINNVRLEKSVEQFERGNTSILDVSLSVGFHNLSYFHRAFKKRYHMTPLSFIKSLE”: the “soluble on expression in E. coli” value is reported as “not soluble”.

With “MSLDNINHILSKELGISLKQVTSVIEMLDEGNTVPFIARYRKERTGGLTDEVLRKFNERLTYLRNLESRKEDVLRIIEEQEKLTPELKLKIEKATTLTEIEDIYRPFKAKKRTRATMAVEKGLKPLAELILSGEFNGDIVEEANKYINEEKGVKNEEEALQGAMDIISEIISDNADYRKWIRNFVQKDGIIQVKGSSEEQTPYEMYYDYKEPVRTIPSHRILAINRGEKEKILSVKVTCNDDKIIDYLNKKVLKENKITDKYLEESIKDSFKRLIYPSIEREIRSELTSKGEEGAIDIFKANLKALLMQAPIKGKVVMGFDPGFRTGCKVAILDETGKFVENTTVYPTAPQNRIDETISTLKKLIKKHGVQVISLGNGTASRESEEVIAKMLKEIKDETGKELFYVIVSEAGASVYSASELANKEYPDLDVTVRGAISIGRRLQDPLAELVKIDPKAIGVGQYQHDVTQKKLDESLAGIVEDCVNNVGVDLNIATPSLLSYISGINASIAKNIVDYREENGKFKSRKELLKVKRLGQKAYEQCAGFLRVMESKEALDNTSVHPESYKVAKELIKTLGYTEEDEGHHHHHH”, the “soluble on expression in E. coli” value was “soluble”.

As for “MGSDKIHHHHHHMNPQPSGATVDKGSVNPEQISIKTFGGLGLSYLNSPMTILWESQKARILFCYLLISYDQWLHRDKLIDMLWPGCDPVSGAKNFKTTLSRLRKSFMGPRSINPIMTLGEAIRLDFNIFSLDSSQFKGYAQTGIKMLARGDISGARRYLEAAQDEYSGEFLPEEPFDHHICAERAELERLHESVLTSLQKVYQLEGNNDAVEAISFLKAVHTNS”, the “soluble on expression in E. coli” value is on record as “not soluble”.

On to “MKIPSVFMLEQQKASLQLHVKQLANEAIQKSAPSAWFEVLYAEAQGDTTQIPWAKLTPHPYLQEWLTNHQPFPSGQKALVIGCGLGDDAEALAKLGFAVTAFDISPTAIAWCGQRFPNSNVNYIVADLLAIPPQWHLAFDFVFECRNIQALPLNIRAEVITSIASVVAPDGTLLLINRVRLEHHHHHH”, for which the “soluble on expression in E. coli” value was “not soluble”.

Consider “MGSDKIHHHHHHMELRHLRHFIVLARLKSFSKAANELHLAQPSLSRSIQKMEERLGASLLARDEKHFALTEYGRLVLAQGELIVSQLEYLESEIKTKQGLEKAKLVIGASPIPSNSIIGPAVGRFIRDNPDISLELKVESWSRLYKLLLKGELDMFIAETNATLLDQRDNVITQCLPQSQAIFCCRPHHPLTRLKTVYLPSLRDYPVGMPSAMPQLLRQRFEDLFEEDRHDFVGLVKYAQFQPIKSAIKECDMVVITPDISVREELASGELVALDVVGVPNIKASFSVVSMKNRRLSHSAEQFVDSLLTHSSAKAVGF”, for which the “soluble on expression in E. coli” value was “not soluble”.

On to “MSYAKEMLDAIEAGQMETAKQLFTQVLAHDDDETQYNLAEELYALGFNGQAKRLYQGLLGRYPDQGDLATALADIAVSDGDTDAALNYLSRIQPGDPAYVQSLVSAADVYQTLGLYEVSEQKLLEAKRLAPDEPVVTFALGEFYFDWGHFAEAISAYNELLAAGTTELAGVNIEARLAASLAQTGQYEDAVAAYEDVGVDALDLNGRFELGGLYLQLDDPAKAITNLQAVIDSDPSYANAYLPLARAYEAQNQPDKALDTVQAGVMVDDTNPTLYALGGKLALSEDNVKLAETYLQKALAIDPEDQGNMLAWSNFLVQEERDQENVDFLDQIDRSGDVDPQIYWNMAKSYDRLENIKKARENYLLAFNRFQDSPDFLHDIIDFFQSTGARAELKAALVRYLKLVPTDDEMQARLDELNAETDLEHHHHHH”, for which the “soluble on expression in E. coli” value was “soluble”.

Take “MGSDKIHHHHHHMNLSMISASVTMGELQKKLDTLSHNIANSNTTGYKRREASFSDLLFQQVNTNKATQYETGRLTPNGIRVGSGAKVSQTALRMEQGTLTTTDRALDFAIANPSSFFEIETVVDGNPVTRLTRDGAFYLTANPNNDNLLQLVTQNGDYLLDSAGNRINIPATFEEITLTDQGTLQVTMPNGANVQAAQLQLIQVMKPQLLEAVGGNMFQLPDLAALGFAENEVYAAVGAGGGAVVQGTLEGSNVDIGREMTDLIETQRNYQFNARSVSMADQMMGLVNGLRR”: the “soluble on expression in E. coli” value is listed as “not soluble”.

For the sequence “MPLDVALKRKYYEEVRPELIRRFGYQNVWEVPRLEKVVINQGLGEAKEDARILEKAAQELALITGQKPAVTRAKKSISNFKLRKGMPIGLRVTLRRDRMWIFLEKLLNVALPRIRDFRGLNPNSFDGRGNYNLGLREQLIFPEITYDMVDALRGMDIAVVTTAETDEEARALLELLGFPFRK”, the “soluble on expression in E. coli” value was “soluble”.

Turning to “MSLAQISKYKRVVLKLSGEALAGEKGFGINPVIIKSVAEQVAEVAKMDCEIAVIVGGGNIWRGKTGSDLGMDRGTADYMGMLATVMNALALQDSLEQLDCDTRVLTSIEMKQVAEPYIRRRAIRHLEKKRVVIFAAGIGNPYFSTDTTAALRAAEVEADVILMGKNNVDGVYSADPKVNKDAVKYEHLTHIQMLQEGLQVMDSTASSFCMDNNIPLTVFSIMEEGNIKRAVMGEKIGTLITKEGHHHHHH”, the “soluble on expression in E. coli” value is reported as “soluble”.

“MGSDKIHHHHHHMLSKLWKRQAPQMVGIDIGSHEIKAILLSKTADGYKIQNHASVPVRKGAVVDHDIRDTEAVIESLRQIRRGLPKSLKFAAVAVSGSAVMTKVIYMDAALNEEEMEAQIEIEADNLIPYSLDEVSIDFERLNPNITDPTKVNVLLSACRTENIDSRVDSLDAIELDVKVVDVEAYALGRSAELIYAQLPDGAKAKSIAMVDIGANMTTFSVVENGDTTFIREQAFGGELFTQSIVSFYGMPHDEAERAKISGQLPRNYMFEVLSPFQMQLLQQIKRTLQIYCTASGREKVDYIVLCGGTAKLEGMVELLTNELGTHTIVADPFQGCLHADDVMKGQLQPNISKYMVACGLALRSYAQWRT”: the “soluble on expression in E. coli” value is given as “not soluble”.

With “MGHHHHHHSHMIKQRTLKRIVQATGVGLHTGKKVTLTLRPAPANTGVIYRRTDLNPPVDFPADAKSVRDTMLCTCLVNEHDVRISTVEHLNAALAGLGIDNIVIEVNAPEIPIMDGSAAPFVYLLLDAGIDELNCAKKFVRIKETVRVEDGDKWAEFKPYNGFSLDFTIDFNHPAIDSSNQRYAMNFSADAFMRQISRARTFGFMRDIEYLQSRGLCLGGSFDCAIVVDDYRVLNEDGLRFEDEFVRHKMLDAIGDLFMCGHNIIGAFTAYKSGHALNNKLLQAVLAKQEAWEYVTFQDDAELPLAFKAPSAVLA”, the “soluble on expression in E. coli” value was “not soluble”.

The values are drawn from the DeepSol protein solubility set.
